# Experimental data as given in US7144731B2, “SCF antibody compositions and methods of using the same” (Amgen Inc., priority 1989, dated 2006).
# B1: rrSCF^1-164: recombinant rat SCF^1-164 from E. coli, also used ^125I-labelled (protein)
# chain: QEICRNPVTDNVKDITKLVANLPNDYMITLNYVAGMDVLPSHCWLRDMVTHLSVSLTTLLDKFSNISEGLSNYSIIDKLGKIVDDLVACMEENAPKNVKESLKKPETRNFTPEEFFSIFNRSIDAFKDFMVASDTSDCVLSSTLGPEKDSRVSVTKPFMLPPVA
# What was measured:
# mouse bone marrow cells = test: Pre-B cell colony formation in agar cultures; assay type: cell-based
# Excerpt: The ability of recombinant rat SCF^1-164 (rrSCF^1-164), to act synergistically with IL-7 to enhance lymphoid cell proliferation was studied in agar cultures of mouse bone marrow. In this assay, the colonies formed with rrSCF^1-164 alone contained monocytes, neutrophils, and blast-cells, while the colonies stimulated by IL-7 alone or in combination with rrSCF^1-164 contained primarily pre-B cells. Pre-B cells, characterized as B220^+, sIg^−, cμ^+, were identified by FACS analysis of pooled cells using fluorescence-labeled antibodies to the B220 antigen [Coffman, Immunol. Rev., 69, 5 (1982)] and to surface Ig (FITC-goat anti-K, Southern Biotechnology Assoc., Birmingham, Ala.); and by analysis of cytospin slides for cytoplasmic μ expression using fluorescence-labeled antibodies (TRITC-goat anti-μ, Southern Biotechnology Assoc.,). Recombinant human IL-7 (rhIL-7) was obtained from Biosource International (Westlake Village, Calif.). When rrSCF^1-164 was added in combination with the pre-B cell growth factor IL-7, a synergistic increase in colony formation was observed (Table 16), indicating a stimulatory role of rrSCF^1-164 on early B cell progenitors.
# human bone marrow = test: Human bone marrow colony assay; assay type: cell-based
# How it was run: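 COS-1-expressed human SCF (aa 1–162), alone or with other growth factors, was tested on Ficoll-separated healthy human bone marrow. Cultures were grown in methylcellulose with 30% FCS and 20 U/ml EPO for 14 days at 7% O2. Colonies ≥0.2 mm were scored.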
# [1] = tested on: Steel-Dickie (S1/S1^d) mice; test: In vivo activity in Steel-Dickie mice; design: species or system mouse; conditions: 100 μg/kg/day 30 days then 30 μg/kg/day 20 days, s.c.
# Description: Steel mice provide a sensitive in vivo model for SCF activity. Different recombinant SCF proteins were tested in Steel-Dickie (S1/S1^d) mice for varying lengths of time. Six to ten week old Steel mice (WCB6F1-S1/S1^d) were purchased from Jackson Labs, Bar Harbor, Me. Peripheral blood was monitored by a SYSMEX F-800 microcell counter (Baxter, Irvine, Calif.) for red cells, hemoglobin, and platelets. For enumeration of peripheral white blood cell (WBC) numbers, a Coulter Channelyzer 256 (Coulter Electronics, Marietta, Ga.) was used.
# In the experiment in FIG. 24, Steel-Dickie mice were treated with E. coli derived SCF^1-164, purified as in Example 10, at a dose of 100 μg/kg/day for 30 days, then at a dose of 30 μg/kg/day for an additional 20 days. The protein was formulated in injectable saline (Abbott Labs, North Chicago, Ill.) +0.1% fetal bovine serum. The injections were performed daily, subcutaneously. The peripheral blood was monitored via tail bleeds of ˜50 μl at the indicated times in FIG. 24. The blood was collected into 3% EDTA coated syringes and dispensed into powdered EDTA microfuge tubes (Brinkmann, Westbury, N.Y.). […]
# Whole blood was stained for T lymphocyte subsets as follows. […] Each sample of blood was then analyzed on a FACScan cell analysis system (Becton Dickinson, Mountain View, Calif.). […]
molecule,measurement,setting,value
B1,Colony Number per 5 × 10^4 mouse bone marrow cells plated,mouse bone marrow cells; 50 ng,4 ± 2
same,Colony Number per 5 × 10^4 mouse bone marrow cells plated,mouse bone marrow cells; 100 ng,7 ± 4
same,Colony Number per 5 × 10^4 mouse bone marrow cells plated,"mouse bone marrow cells; 200 ng, mean of triplicate dishes ± SD",13 ± 2
same,specific activity in proliferation of human bone marrow,human bone marrow,specific activity similar to that of human SCF^1-164
same,"macrocytic anemia (hematocrit, mean red cell volume)",[1],significant correction of the macrocytic anemia
